Laboratory results: PMC11066147 (Heliyon, 2024)
Values joined by “and” are separate entries in the source; they are usually repeats but may differ in a detail not shown here. Identical values can stand only once. Like-named read-outs stand apart in the source and are kept apart here.

B1: Plasmodium falciparum Hsp110 (PfHsp70-z, PF3D7_0708800) (natural protein)
chain: MSVLGIDIGNDNSVVATINKGAINVVRNDISERLTPTLVGFTEKERLIGDSALSKLKSNYKNTCRNIKNLIGKIGTDVKDDIEIHEAYGDLIPCEYNYLGYEVEYKNEKVVFSAVRVLSALLSHLIKMAEKYIGKECKEIVLSYPPTFTNCQKECLLAATKIINANVLRIISDNTAVALDYGMYRMKEFKEDNGSLLVFVNIGYANTCVCVARFFSNKCEILCDIADSNLGGRNLDNELIKYITNIFVNNYKMNPLYKNNTPELCPMGTGRLNKFLVTSTASDQQNGINNKVRIKLQEVAIKTKKVLSANNEASIHVECLYEDLDCQGSINRETFEELCSNFFLTKLKHLLDTALCISKVNIQDIHSIEVLGGSTRVPFIQNFLQQYFQKPLSKTLIADESIARGCVLSAAMVSKHYKVKEYECVEKVTHPINVEWHNINDASKSNVEKLYTRDSLKKKVKKIVIPEKGHIKLTAYYENTPDLPSNCIKELGSCIVKINEKNDKIVESHVMTTFSNYDTFTFLGAQTVTKSVIKSKDEKKKADDKTEDKGEKKDAKDQEQNDDKDQTNDNNMNEKDTNDKKEKNNETNSPNKTELKKGEEGKVQTCYTTIPIETLLAQGSYSSKDIFNFSEQEINMQHSDILEGERLKHLNELETIIYESRSRLNGIYKNFVMDDERDRILLSLDDYENWLYDNIEENKNMFIKKKEEIRDLIKNIVQKFDVYNSKQQNLGNIINHLNNIITQCSNKPSDESQNIINRTTKFLNNINSLQEQEKNKPLYEPPVYTLNDIEAEFNEVTQLAQKFFSKLEVEELAKQKAKQEKEKEKEKEKEKEKEKEKNEETNLDANEEQNNEAKNNEEKENSTKNENSANPEE
B2: Plasmodium falciparum heat shock protein 70-1 (PfHsp70-1) (natural protein)
chain: not shown

Experiments:
Test in all cases: SPR
[1] = molecular target: B2
[2] = molecular target: B1
E. coli Hsp70 (DnaK) [3] = molecular target: T1, E. coli Hsp70 (DnaK) (E. coli, UniProt P0A6Y8 1-638)
[4] = molecular target: B2; remark: listed apart in the source
[5] = molecular target: B1; remark: listed apart in the source
E. coli Hsp70 (DnaK) [6] = molecular target: T1, E. coli Hsp70 (DnaK); remark: listed apart in the source
SPR = molecular target: the molecule itself
[7] = molecular target: B1; remark: listed apart in the source

Row | Binder | Kd [1] | Kd [2] | Kd (E. coli Hsp70 (DnaK) [3]) | Kd [4] | Kd [5] | Kd (E. coli Hsp70 (DnaK) [6]) | koff (SPR) | binding result [7]
1 | NRNNTG | 296 ± 0.07 nM | 52.5 ± 0.05 nM | 7310 ± 10 nM | 10.2 ± 0.02 nM | 24.1 ± 0.01 nM | 24.9 ± 0.09 nM | – | –
2 | NRLLTG | 181 ± 0.01 nM | 128 ± 0.08 nM | 2530 ± 30 nM | 97.4 ± 0.04 nM | 145 ± 0.03 nM | 12.3 ± 0.03 nM | – | –
3 | ALLLMYRR | 140 ± 0.4 nM | 97.1 ± 0.09 nM | 4450 ± 50 nM | 61.8 ± 0.08 nM | 43.1 ± 0.01 nM | 82 ± 0.02 nM | – | –
4 | ANNNMYRR | 45.4 ± 0.07 nM | 8.31 ± 0.01 nM | 8960 ± 60 nM | 4.02 ± 0.02 nM | 9.37 ± 0.07 nM | 440 ± 4 nM | – | –
5 | B1 | – | – | – | – | – | – | 5.27e-05 s⁻¹ and 7.73e-05 s⁻¹ and 3.37e-05 s⁻¹ | –
6 | B2 | – | – | – | – | – | – | – | binds
